PMC9606073 (Immunity, 2022)

How the values were obtained:
Settings in all cases: both partners purified
SARS-CoV-2 WA1 RBD [1] = target: SARS-CoV-2 WA1 RBD (SARS-CoV-2 USA-WA1/2020 (MT246667.1)); experiment: SPR
[2] = target: SARS-CoV-2 RBD (residues 323-528) (SARS-CoV-2 WA1); experiment: crystal structure
SARS-CoV-2 WA1 RBD [3] = target: SARS-CoV-2 WA1 RBD (SARS-CoV-2 USA-WA1/2020 (MT246667.1)); experiment: ELISA
Yun11-CoV RBD = target: T1, Yun11-CoV RBD (Bat coronavirus Cp/Yunnan2011 (Yun11), UniProt R9QTH3); experiment: ELISA
T1 construct: source: Expi293F cells, transient transfection, purified (Ni-NTA, SEC)

Rf1-CoV RBD = target: T2, Rf1-CoV RBD (Bat SARS CoV Rf1/2004, UniProt Q0QDZ0); experiment: ELISA
T2 construct: source: Expi293F cells, transient transfection, purified (Ni-NTA, SEC)

B1: M8a-6 IgG (antibody, V domains shown)
VH: QVQLQQPGTELVMPGASVKLSCKTSGYTFTHYWMHWVKQRPGEGLEWIGEIAPSDNYVKYNQKFKGKSTLSVDRSSSTAYMQLSSLTSEDSAVYFCARPDNSGYPVYFDYWGQGTSLTVSS
VL: DIVMTQSQKFMSTSLGDRVSISCKASQDVGTTVAWYQQKPGQSPKLLIYWASTRHTGVPDRFTGTGSGTDYTLTISSVAAEDLALYYCQQHYNTPYTFGGGTKLEIE
notes: copies: 2 + 2
- Kd (SARS-CoV-2 WA1 RBD [1]): 104000 pM

B2: M8a-6 Fab (Fab, V domains shown)
VH: B1 VH
VL: B1 VL
notes: source: Expi293 cells, transient transfection, purified (Ni-NTA, SEC)
- binding result [2]: binds

B3: HSW-2 Fab (Fab, V domains shown)
VH: QVQLQQSGPELVKPGASVKISCKASGYVFSTSWMSWVKQRPGEGPEWIGRIYPRDGHSSSTGKFKDKATLTADKSSNTAYIHLSSLTSEDSAVYFCARDYGYYYFDYWGQGTTLTVSS
VL: DIQMTQSPASLSASVGEAVTITCRLSENVYSFLAWYQQKQGKSPQLLVYRAKTLAEGVPSRFSGSGSGTQFSLKINSLQPEDFGTYYCQHHYGTPPTFGGGTKLEIK
- binding result [2]: binds

B4: HSW-2 IgG (antibody, V domains shown)
VH: B3 VH
VL: B3 VL
notes: copies: 2 + 2
- binding result (SARS-CoV-2 WA1 RBD [3]): binds

B5: M8a-28 IgG (antibody, V domains shown)
VH: QVQLQQPGAELVKPGASVKMSCKASGYNFNHYWISWVKQRPGQGLEWIGDIYPLSHFTTYNEKFTNRATLTVDTSSTTAYMQLNSLTSDDSAVFYCARWDYFDSRTFDYWGQGTTLTVSS
VL: DILLTQFPAILSVSPGERVSFSCRASQTIGTNIHWYQQRINGSPRLLIKYASESISGIPSRFSGSGSGTDFSLSINNVESEDIADYYCQQINSWPLTFGAGTKLDLK
notes: copies: 2 + 2
- binding result (SARS-CoV-2 WA1 RBD [3]): binds

B6: M8a-3 IgG (antibody, V domains shown)
VH: QVQLQQPGAELVLPGASVKLSCKASGYTFTNYWMHWVKQRPGHGLEWIGEIDPFDTYIKINQKFKGKSTLTVDTSSSTAYMQLSSLTSEDSAVYYCARPDSSGYPVYFDYWGQGTTLTVSS
VL: DIVMTQSHKFMSTSVGDRVSITCKASQDVGTYIAWYQQKPGQSPKLLIYWASTRHTGVPDRFTGSGSGTNYTLTISSVQAEDLALYHCQQHYSTPYTFGGGTKLEIK
notes: copies: 2 + 2
- Kd (SARS-CoV-2 WA1 RBD [1]): 860 pM
- koff (SARS-CoV-2 WA1 RBD [1]): 0.00016 s⁻¹
- kon (SARS-CoV-2 WA1 RBD [1]): 190000 M⁻¹ s⁻¹

B7: M8a-3 IgG (antibody, V domains shown)
VH: B6 VH
VL: B6 VL
notes: copies: 2 + 2
- binding result (Yun11-CoV RBD): binds

B8: M8a-34 IgG (antibody, V domains shown)
VH: QVQLQQPGAELVKPGASVKMSCKASGYTFITYWITWVKQRPGQGLEWIGDIYPGGGRTNYNEKFKSKATLTVDTSSSTAYMQLRSLTSEDSAVYYCARYDGNYVGYYYAMDYWGQGTSVTVSS
VL: DIVLTQSPVSLAVSLGQRATISCRASESVDFYGNSFIYWYQQKPGQAPKLLIYRASNLESGIPARFSGSGSRTDFTLTIHPVEADDVATYYCQQSIEDPRTFGGGTKLEIK
notes: copies: 2 + 2
- binding result (Yun11-CoV RBD): binds
- binding result (SARS-CoV-2 WA1 RBD [3]): binds
- binding result (Rf1-CoV RBD): binds

B9: M8a-34 Fab (Fab, V domains shown)
VH: B8 VH
VL: B8 VL
- binding result [2]: binds

B10: C118 IgG (antibody, V domains shown)
VH: QVQLVESGGGVVQPGRSLRLSCAASGFTFSNYAMHWVRQAPGKGLEWVAVISYDGSNKYYADSVKGRFTISRDNSKNTLYLQMNSLRAEDTAIYYCASGYTGYDYFVRGDYYGLDVWGQGTTVTVSS
VL: QPVLTQSPSASASLGASVKLTCTLSSGHSSYAIAWHQQQPEKGPRYLMKLNTDGSHSKGDGIPDRFSGSSSGAERYLTISSLQSEDEADYYCQTWGTGILVFGGGTKLTVL
notes: copies: 2 + 2
- Kd (SARS-CoV-2 WA1 RBD [1]): 190 pM
- koff (SARS-CoV-2 WA1 RBD [1]): 3.5e-05 s⁻¹
- kon (SARS-CoV-2 WA1 RBD [1]): 180000 M⁻¹ s⁻¹

B11: HSW-1 IgG (antibody, V domains shown)
VH: QVQLQQPGAELVKPGTSMKLSCKASGYTFTSYWMHWVKQRPGQGLEWIGMIHPNSGSTKYNENFKSKATLTVDKSSSTAYMQFSSLTSEDSAVYYCVRSGSYYGTTYDYFDYWGQGTTLTVSS
VL: DIVLTQSPASLAVSLGQRATISCRASESVNIYGNSFMHWYQQKPGQPPKLLIFRASNLESGIPVRFSGSGSRTDFTLTINPVEADDVATYYCHQSNEDPFTFGSGTKLEIK
notes: copies: 2 + 2
- binding result (SARS-CoV-2 WA1 RBD [3]): binds

B12: M8a-31 IgG (antibody, V domains shown)
VH: EVQLKQSVAELVRPGASVKVSCTASGFNIKNIYMHWVKQRPEQGLDWIGRIDPANGNSRYAPKFQDKATITADTSSNTAYLQLSSLTSEDTAIYYCADEGWGFANWGQGTLVTVSA
VL: DIVMTQSPSSLTVTAGEKVTMSCKSSQSLLNSGNQKNYLTWYQQKVGQPPKLLIYWASTRDPGVPDRFTGSGFGTDFTLTISSVQAEDLAVYYCQNDYSYPLTFGAGTKVELK
notes: copies: 2 + 2
- binding result (Yun11-CoV RBD): binds
- binding result (SARS-CoV-2 WA1 RBD [3]): binds
- binding result (Rf1-CoV RBD): binds
